For assay [1], the target named is CFP-tagged human αA-crystallin wild-type (human) (UniProt P02489). Description: FRET or BRET; acceptor photobleaching in living HeLa cells co-transfected for 48 h; CFP fusion as donor, YFP fusion as acceptor bleached at 514 nm; FRET efficiency from ten images per construct, three experiments; room temperature. In general terms: BRET reads energy transfer from a luciferase to a nearby fluorophore.

Assay [2] deals with CFP-tagged human αB-crystallin wild-type (human) (UniProt P02511). Described as above.
Chain of UniProt P02511 (P02511 whole entry): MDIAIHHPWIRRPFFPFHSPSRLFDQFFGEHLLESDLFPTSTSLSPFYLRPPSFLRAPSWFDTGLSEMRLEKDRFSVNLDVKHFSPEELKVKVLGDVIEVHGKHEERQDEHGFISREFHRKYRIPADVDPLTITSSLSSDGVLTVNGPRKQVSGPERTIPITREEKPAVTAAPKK

For “YFP-tagged C-terminal truncated human αA-crystallin αA162 (from UniProt P02489 1-162) (domain or fragment)”, the FRET efficiency against αAwt/αAwt in assay [1] came to 30 % lower. The same measure, in the same setting: for “YFP-tagged C-terminal truncated human αA-crystallin αA168 (from UniProt P02489 1-168) (domain or fragment)” the value was 30 % lower. In the case of “YFP-tagged C-terminal truncated human αA-crystallin αA172 (from UniProt P02489 1-172) (domain or fragment)”, the FRET efficiency against αAwt/αAwt in assay [1] is 50 % higher. The substance further showed an FRET efficiency against αBwt/αAwt in assay [2] of 2 fold.
